Test [1] concerns the target T1, EGFR (UniProt P00533 25-1210, limits assumed). Kind of test: cell-based or functional assay.
Test [2] addresses T1, EGFR. Description: flow cytometry, serial dilution on FaDu cells (EGFR-expressing), PE anti-His detection. Here is the method:
(§1) Binding analysis of scDb and scDb-scFv was performed by flow cytometry using tumor cell lines with different EGFR-expression levels (Table 7). Adherent cells were washed with PBS and shortly trypsinized at 37° C. Trypsin was quenched with FCS-containing medium and removed by centrifugation (500×g, 5 min.). 1×10⁵ target cells/well (FaDu, Lim1215, T-47-D and SKBR-3) were incubated with a serial dilution of scDb or scDb-scFv for 1 h at 4° C. After removing excess of recombinant protein by washing with PBA (PBS, 2% FBS, and 0.02% sodium azide), bound protein was detected using PE-conjugated anti-hexahistidyl tag mAb (Miltenyi Biotec). Fluorescence was measured using MACSquant Analyzer 10 (Miltenyi Biotec) and data were analyzed using FlowJo (Tree Star). Relative median fluorescence intensities (MFI) were calculated as followed: relative MFI=((MFIₛₐₘₚₗₑ-(MFIdetection-MFIcells))/MFIcells).
(In flow cytometry, cells or beads pass a laser one at a time.)

Test [3] addresses T2, CD3 (UniProt P07766 23-207).
T2 construct: whole, on cells; on cells it stands in the TCR/CD3 complex; also called CD3 on Jurkat cells
Description: flow cytometry, serial dilution on Jurkat cells (CD3-expressing), PE anti-His detection.

Test [4] addresses T1, EGFR. Description: flow cytometry, serial dilution on SKBR-3 cells (EGFR-expressing), PE anti-His detection. Here is the method:
as §1

For test [5], the target named is T1, EGFR. Kind of test: flow cytometry, serial dilution on T-47-D cells (EGFR-expressing), PE anti-His detection. Here is the method: as §1
The target of test [6] is T1, EGFR. Description: flow cytometry, serial dilution on LIM1215 cells (EGFR-expressing), PE anti-His detection. The procedure: as §1
For test [7], the target named is T3, HER3 (UniProt P21860 20-1342, limits assumed). Kind of test: cell-based or functional assay.
For test [8], the target named is T2, CD3. Kind of test: flow cytometry, serial dilution on Jurkat cells (CD3-expressing), PE anti-human Fc detection. Here is the method: (§2) Binding of trivalent, bispecific fusion proteins to HER3-expressing (LIM1215, MCF-7) and CD3-expressing (Jurkat) cell lines was analyzed by flow cytometry. 2×10⁵ cells/well were incubated with a serial dilution of trivalent, bispecific antibodies for 1 h at 4° C. followed by detection using a PE-conjugated anti-human Fc antibody (Jackson ImmunoResearch Laboratories Inc). […] Concerning binding to the CD3-expressing cell line Jurkat, the trivalent, bispecific antibodies in the (1-2)+1 and in the (2−1)+1 orientation bound with EC₅₀ values in the low nanomolar range.

In test [9] the target is T3, HER3. Description: flow cytometry, serial dilution on MCF-7 cells (HER3-expressing), PE anti-human Fc detection. The procedure:
as §2

In test [10] the target is T3, HER3. Description: flow cytometry, serial dilution on LIM1215 cells (HER3-expressing), PE anti-human Fc detection. Here is the method:
as §2

B1: scDbhu225xhuU3-scFvhu225 (bispecific antibody)
chain: EVQLVESGGGLVQPGGSLRLSCAASGFSLTNYGVHWVRQAPGKGLEWLGVIWSGGNTDYNTPFTSRFTISRDNSKNTLYLQMNSLRAEDTAVYYCARALTYYDYEFAYWGQGTTVTVSSGGGGSDIQMTQSPSSLSASVGDRVTITCRASQDIRNYLNWYQQKPGKAPKLLIYYTSRLHSGVPSRFSGSGSGTDFTFTISSLQPEDIATYYCQQGNTLPWTFGQGTKLEIKRGGGGSGGGGSGGGGSQVQLVQSGAEVKKPGSSVKVSCKASGGTFSGYTMNWVRQAPGQGLEWMGLINPYKGVSTYNGKFKDRVTITADKSTSTAYMELSSLRSEDTAVYYCARSGYYGDSDWYFDVWGQGTLVTVSSGGGGSDIQLTQSPSFLSASVGDRVTITCRASQSIGTNIHWYQQKPGKAPKLLIKYASESISGVPSRFSGSGSGTEFTLTISSLQPEDFATYYCQQNNNWPTTFGAGTKLEIKRAAAGGSGGGGSGGGTEVQLVESGGGLVQPGGSLRLSCAASGFSLTNYGVHWVRQAPGKGLEWLGVIWSGGNTDYNTPFTSRFTISRDNSKNTLYLQMNSLRAEDTAVYYCARALTYYDYEFAYWGQGTTVTVSSGGGGSGGGGSGGGGSDIQLTQSPSFLSASVGDRVTITCRASQSIGTNIHWYQQKPGKAPKLLIKYASESISGVPSRFSGSGSGTEFTLTISSLQPEDFATYYCQQNNNWPTTFGAGTKLEIKRSLHHHHHH
notes: the end number was counted from the printed lines; The His tag is part of the entry; also called scDb-scFv; trivalent, bispecific bisAb targeting EGFR and CD3
Broadly, the EC50 is the concentration giving half of the maximal effect. For B1, in test [1], the “EC50 of PBMC cytotoxicity on FaDu cells, E:T 10:1” value worked out at 9 pM. Also, the “EC50 of PBMC cytotoxicity on LIM1215 cells, E:T 10:1” value in test [1] was found to be 7 pM. Besides, the “EC50 of PBMC cytotoxicity on SKBR-3 cells, E:T 10:1” value in [1] stood at 2 pM. Besides, in [1], the “EC50 of PBMC cytotoxicity on T-47-D cells, E:T 10:1” value was determined as 90 pM. For the same molecule, the EC50 was 500 pM in [2]; 6400 pM in test [3]; 300 pM in test [4]; 90 pM in test [5]; 500 pM in test [6].

B2: scDbhu225xhuU3 (bispecific antibody)
chain: EVQLVESGGGLVQPGGSLRLSCAASGFSLTNYGVHWVRQAPGKGLEWLGVIWSGGNTDYNTPFTSRFTISRDNSKNTLYLQMNSLRAEDTAVYYCARALTYYDYEFAYWGQGTTVTVSSGGGGSDIQMTQSPSSLSASVGDRVTITCRASQDIRNYLNWYQQKPGKAPKLLIYYTSRLHSGVPSRFSGSGSGTDFTFTISSLQPEDIATYYCQQGNTLPWTFGQGTKLEIKRGGGGSGGGGSGGGGSQVQLVQSGAEVKKPGSSVKVSCKASGGTFSGYTMNWVRQAPGQGLEWMGLINPYKGVSTYNGKFKDRVTITADKSTSTAYMELSSLRSEDTAVYYCARSGYYGDSDWYFDVWGQGTLVTVSSGGGGSDIQLTQSPSFLSASVGDRVTITCRASQSIGTNIHWYQQKPGKAPKLLIKYASESISGVPSRFSGSGSGTEFTLTISSLQPEDFATYYCQQNNNWPTTFGAGTKLEIKRAAAGGSGGGGSGGGTGGGGSLHHHHHH
notes: the end number was counted from the printed lines; The His tag is part of the entry; also called bispecific scDb targeting CD3 and EGFR
As to B2, the “EC50 of PBMC cytotoxicity on FaDu cells, E:T 10:1” value in test [1] is more than 10000 pM. For the same molecule, in [1], the “EC50 of PBMC cytotoxicity on LIM1215 cells, E:T 10:1” value is more than 10000 pM. In test [1], the “EC50 of PBMC cytotoxicity on SKBR-3 cells, E:T 10:1” value was more than 10000 pM. In test [1], the “EC50 of PBMC cytotoxicity on T-47-D cells, E:T 10:1” value is more than 10000 pM. Besides, the EC50 in test [2] came to 1400 pM; in test [3], 5400 pM; in test [4], 2300 pM; in [5], 1100 pM; in test [6] it was 1600 pM.

B3: scDb/scFv-Fc (1-1)+2, trivalent bispecific anti-HER3×anti-CD3 (bispecific antibody)
chain 1: QVQLQQSGPGLVKPSQTLSLTCAISGDSVSSNRAAWNWIRQSPSRGLEWLGRTYYRSKWYNDYAQSLKSRITINPDTPKNQFSLQLNSVTPEDTAVYYCARDGQLGLDALDIWGQGTMVTVSSGGGGSQAGLTQPPAVSVAPGQTASITCGRDNIGSRSVHWYQQKPGQAPVLVVYDDSDRPAGIPERFSGSNYENTATLTISRVEAGDEADYYCQVWGITSDHVVFGGGTKLTVLGGGGSGGGGSGGGGSQVQLQQSGPGLVKPSQTLSLTCAISGDSVSSNRAAWNWIRQSPSRGLEWLGRTYYRSKWYNDYAQSLKSRITINPDTPKNQFSLQLNSVTPEDTAVYYCARDGQLGLDALDIWGQGTMVTVSSGGGGSQAGLTQPPAVSVAPGQTASITCGRDNIGSRSVHWYQQKPGQAPVLVVYDDSDRPAGIPERFSGSNYENTATLTISRVEAGDEADYYCQVWGITSDHVVFGGGTKLTVLAAADKTHTCPPCPAPPVAGPSVFLFPPKPKDTLMISRTPEVTCVVVDVSHEDPEVKFNWYVDGVEVHNAKTKPREEQYNSTYRVVSVLTVLHQDWLNGKEYKCKVSNKGLPSSIEKTISKAKGQPREPQVCTLPPSRDELTKNQVSLSCAVKGFYPSDIAVEWESNGQPENNYKTTPPVLDSDGSFFLVSKLTVDKSRWQQGNVFSCSVMHEALHNHYTQKSLSLSPGK
chain 2: DIQMTQSPSSLSASVGDRVTITCRASQDIRNYLNWYQQKPGKAPKLLIYYTSRLHSGVPSRFSGSGSGTDFTFTISSLQPEDIATYYCQQGNTLPWTFGQGTKLEIKRGGGGSGGGGSGGGGSQVQLVQSGAEVKKPGSSVKVSCKASGGTFSGYTMNWVRQAPGQGLEWMGLINPYKGVSTYNGKFKDRVTITADKSTSTAYMELSSLRSEDTAVYYCARSGYYGDSDWYFDVWGQGTLVTVSSAAADKTHTCPPCPAPPVAGPSVFLFPPKPKDTLMISRTPEVTCVVVDVSHEDPEVKFNWYVDGVEVHNAKTKPREEQYNSTYRVVSVLTVLHQDWLNGKEYKCKVSNKGLPSSIEKTISKAKGQPREPQVYTLPPCRDELTKNQVSLWCLVKGFYPSDIAVEWESNGQPENNYKTTPPVLDSDGSFFLYSKLTVDKSRWQQGNVFSCSVMHEALHNHYTQKSLSLSPGK
notes: The scDb is monospecific for HER3; the CD3 site sits in the scFv arm; also called scDb3-43x3-43-Fc(hole)Δab + scFvhuU3-Fc(knob)Δab
As for B3, the “EC50 of proliferation of CD4+ T-cells, MCF-7 co-culture” value in test [7] is 393 pM. For the same molecule, the “EC50 of proliferation of CD8+ T-cells, MCF-7 co-culture” value in test [7] was found to be 191 pM. The 50% effective concentration (EC50) in [8] came out at 700 pM; in test [9], 400 pM; in test [10], 882 pM.

B4: scDb/Fab-Fc (1-1)+2, trivalent bispecific anti-HER3×anti-CD3 (bispecific antibody)
chain: QVQLQQSGPGLVKPSQTLSLTCAISGDSVSSNRAAWNWIRQSPSRGLEWLGRTYYRSKWYNDYAQSLKSRITINPDTPKNQFSLQLNSVTPEDTAVYYCARDGQLGLDALDIWGQGTMVTVSSGGGGSQAGLTQPPAVSVAPGQTASITCGRDNIGSRSVHWYQQKPGQAPVLVVYDDSDRPAGIPERFSGSNYENTATLTISRVEAGDEADYYCQVWGITSDHVVFGGGTKLTVLGGGGSGGGGSGGGGSQVQLQQSGPGLVKPSQTLSLTCAISGDSVSSNRAAWNWIRQSPSRGLEWLGRTYYRSKWYNDYAQSLKSRITINPDTPKNQFSLQLNSVTPEDTAVYYCARDGQLGLDALDIWGQGTMVTVSSGGGGSQAGLTQPPAVSVAPGQTASITCGRDNIGSRSVHWYQQKPGQAPVLVVYDDSDRPAGIPERFSGSNYENTATLTISRVEAGDEADYYCQVWGITSDHVVFGGGTKLTVLAAADKTHTCPPCPAPPVAGPSVFLFPPKPKDTLMISRTPEVTCVVVDVSHEDPEVKFNWYVDGVEVHNAKTKPREEQYNSTYRVVSVLTVLHQDWLNGKEYKCKVSNKGLPSSIEKTISKAKGQPREPQVCTLPPSRDELTKNQVSLSCAVKGFYPSDIAVEWESNGQPENNYKTTPPVLDSDGSFFLVSKLTVDKSRWQQGNVFSCSVMHEALHNHYTQKSLSLSPGK
heavy: QVQLVQSGAEVKKPGSSVKVSCKASGGTFSGYTMNWVRQAPGQGLEWMGLINPYKGVSTYNGKFKDRVTITADKSTSTAYMELSSLRSEDTAVYYCARSGYYGDSDWYFDVWGQGTLVTVSSASTKGPSVFPLAPSSKSTSGGTAALGCLVKDYFPEPVTVSWNSGALTSGVHTFPAVLQSSGLYSLSSVVTVPSSSLGTQTYICNVNHKPSNTKVDKKVEPKSCDKTHTCPPCPAPPVAGPSVFLFPPKPKDTLMISRTPEVTCVVVDVSHEDPEVKFNWYVDGVEVHNAKTKPREEQYNSTYRVVSVLTVLHQDWLNGKEYKCKVSNKGLPSSIEKTISKAKGQPREPQVYTLPPCRDELTKNQVSLWCLVKGFYPSDIAVEWESNGQPENNYKTTPPVLDSDGSFFLYSKLTVDKSRWQQGNVFSCSVMHEALHNHYTQKSLSLSPGK
light: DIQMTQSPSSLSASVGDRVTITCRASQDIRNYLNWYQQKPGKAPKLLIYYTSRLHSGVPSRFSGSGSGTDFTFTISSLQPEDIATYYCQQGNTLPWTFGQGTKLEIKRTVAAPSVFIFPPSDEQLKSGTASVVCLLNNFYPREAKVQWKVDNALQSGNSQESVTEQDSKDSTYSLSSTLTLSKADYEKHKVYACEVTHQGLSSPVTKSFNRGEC
notes: The scDb is monospecific for HER3; the CD3 site sits in the Fab arm; also called scDb3-43x3-43-Fc(hole)Δab + FdhuU3-Fc(knob)Δab + VLhuU3-CLK
As for B4, the EC50 in [8] was 8700 pM; in test [9], 700 pM; in test [10] it was 249 pM.

Source of the values: patent US20220396635A1 (UNIVERSIT T STUTTGART, published 2022).
